The text below walks through data of the supplement of paper PMC5998384.

In series [1] the test system is HeLa Kyoto. The experiment in a line: solubility in G1/S (NP-40 vs SDS abundance) (log2 ratio); higher = more soluble. The settings on record: cell cycle stage: G1/S.
Series [2] deals with HeLa Kyoto. The experiment in a line: melting temperature (median over replicates), in situ; higher = more thermally stable.
The test system of series [3] is HeLa Kyoto. The series is described as follows: solubility change mitosis vs G1/S (difference of NP-40 vs SDS log2 ratios) (log2 ratio difference); higher = more soluble in mitosis.
The test system of series [4] is HeLa Kyoto. The experiment in a line: thermal stability score vs G1/S (z-score of summed log2 fold changes over temperatures); higher = more thermally stable than in G1/S.
[5] abbreviates: cell cycle stage: early G1 (4.5 h after nocodazole release).
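Wherever melting temperature (median over replicates), in situ is given: HeLa Kyoto cells synchronized by double thymidine or nocodazole block, proteins quantified by TMT10plex mass spectrometry, three independent biological replicates.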
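Wherever solubility change mitosis vs G1/S (difference of NP-40 vs SDS log2 ratios) is given: synchronized HeLa Kyoto cells (double thymidine block for G1/S, nocodazole release for mitosis), protein amounts in NP-40 versus SDS lysates quantified by mass spectrometry, three biological replicates.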
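Wherever solubility in G1/S (NP-40 vs SDS abundance) is given: HeLa Kyoto cells arrested at G1/S by double thymidine block, proteins quantified by TMT10plex mass spectrometry in mild NP-40 versus SDS extracts, three biological replicates.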
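Wherever thermal stability score vs G1/S (z-score of summed log2 fold changes over temperatures) is given: synchronized HeLa Kyoto cells, proteins quantified by TMT10plex mass spectrometry, three biological replicates, mitosis taken 0.5 h after nocodazole release, G1/S directly after double thymidine block.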

On to ITSN2, for which the “solubility in G1/S (log2)” value in the series with HeLa Kyoto [1] is -0.159. Moreover, the melting temperature with HeLa Kyoto [2] (cell cycle stage: G1/S) amounted to 51.9 °C; in the series with HeLa Kyoto [2] (cell cycle stage: mitosis), 49.1 °C. In the series with HeLa Kyoto [3], the “solubility change mitosis (log2)” value was -0.0144. Further, the thermal stability score turned out to be 0.178 in the series with HeLa Kyoto [4] (setting [5]) and 0.129 with HeLa Kyoto [4] (cell cycle stage: mitosis).

With “MPPSGPRGTLLLLPLLLLLLLRAVLAVPLERGAPNKEETPATESPDTGLYYHRYLQEVIDVLETDGHFREKLQAANAEDIKSGKLSRELDFVSHHVRTKLDELKRQEVSRLRMLLKAKMDAEQDPNVQVDHLNLLKQFEHLDPQNQHTFEARDLELLIQTATRDLAQYDAAHHEEFKRYEMLKEHERRRYLESLGEEQRKEAERKLEEQQRRHREHPKVNVPGSQAQLKEVWEELDGLDPNRFNPKTFFILHDINSDGVLDEQELEALFTKELEKVYDPKNEEDDMREMEEERLRMREHVMKNVDTNQDRLVTLEEFLASTQRKEFGDTGEGWETVEMHPAYTEEELRRFEEELAAREAELNAKAQRLSQETEALGRSQGRLEAQKRELQQAVLHMEQRKQQQQQQQGHKAPAAHPEGQLKFHPDTDDVPVPAPAGDQKEVDTSEKKLLERLPEVEVPQHL [NUCB1]”, the “solubility in G1/S (log2)” value in the series with HeLa Kyoto [1] amounted to 0.717. For the same substance, the melting temperature in the series with HeLa Kyoto [2] (cell cycle stage: G1/S) is 54.5 °C; in the series with HeLa Kyoto [2] (cell cycle stage: mitosis) it was 54.7 °C. Besides, the “solubility change mitosis (log2)” value with HeLa Kyoto [3] was found to be 0.0913. Besides, the figures for the thermal stability score in the series on HeLa Kyoto [4] (setting [5]) and in the series with HeLa Kyoto [4] (cell cycle stage: mitosis) were -3.73 and -4.26, respectively.

As to “MFQLPVNNLGSLRKARKTVKKILSDIGLEYCKEHIEDFKQFEPNDFYLKNTTWEDVGLWDPSLTKNQDYRTKPFCCSACPFSSKFFSAYKSHFRNVHSEDFENRILLNCPYCTFNADKKTLETHIKIFHAPNASAPSSSLSTFKDKNKNDGLKPKQADSVEQAVYYCKKCTYRDPLYEIVRKHIYREHFQHVAAPYIAKAGEKSLNGAVPLGSNAREESSIHCKRCLFMPKSYEALVQHVIEDHERIGYQVTAMIGHTNVVVPRSKPLMLIAPKPQDKKSMGLPPRIGSLASGNVRSLPSQQMVNRLSIPKPNLNSTGVNMMSSVHLQQNNYGVKSVGQGYSVGQSMRLGLGGNAPVSIPQQSQSVKQLLPSGNGRSYGLGSEQRSQAPARYSLQSANASSLSSGQLKSPSLSQSQASRVLGQSSSKPAAAATGPPPGNTSSTQKWKICTICNELFPENVYSVHFEKEHKAEKVPAVANYIMKIHNFTSKCLYCNRYLPTDTLLNHMLIHGLSCPYCRSTFNDVEKMAAHMRMVHIDEEMGPKTDSTLSFDLTLQQGSHTNIHLLVTTYNLRDAPAESVAYHAQNNPPVPPKPQPKVQEKADIPVKSSPQAAVPYKKDVGKTLCPLCFSILKGPISDALAHHLRERHQVIQTVHPVEKKLTYKCIHCLGVYTSNMTASTITLHLVHCRGVGKTQNGQDKTNAPSRLNQSPSLAPVKRTYEQMEFPLLKKRKLDDDSDSPSFFEEKPEEPVVLALDPKGHEDDSYEARKSFLTKYFNKQPYPTRREIEKLAASLWLWKSDIASHFSNKRKKCVRDCEKYKPGVLLGFNMKELNKVKHEMDFDAEWLFENHDEKDSRVNASKTADKKLNLGKEDDSSSDSFENLEEESNESGSPFDPVFEVEPKISNDNPEEHVLKVIPEDASESEEKLDQKEDGSKYETIHLTEEPTKLMHNASDSEVDQDDVVEWKDGASPSESGPGSQQVSDFEDNTCEMKPGTWSDESSQSEDARSSKPAAKKKATMQGDREQLKWKNSSYGKVEGFWSKDQSQWKNASENDERLSNPQIEWQNSTIDSEDGEQFDNMTDGVAEPMHGSLAGVKLSSQQA [ADNP]”, the “solubility in G1/S (log2)” value with HeLa Kyoto [1] is -0.566. For the same substance, the melting temperature in the series on HeLa Kyoto [2] (cell cycle stage: G1/S) was determined as 46.7 °C; in the series with HeLa Kyoto [2] (cell cycle stage: mitosis) it was 49.2 °C. Besides, the “solubility change mitosis (log2)” value in the series with HeLa Kyoto [3] came to 0.303. For the same substance, the thermal stability score with HeLa Kyoto [4] (setting [5]) is 1.91; in the series on HeLa Kyoto [4] (cell cycle stage: mitosis), 4.53.

With “MLGPHLPPPPLAPSEGRPTPCAFQIPDGSYRCLALEAEESSGEEGLQGEVGPTDLEEDEGVSRSGDDSACRVTQGTPQLPKALGIQPPSCSREEQGASQHDDRASQDWDVVKAGQMMTASPSPGPGPRVAQKPALGRSTSLTEKDLKEAKARSQQIAAQLTTPPSSNSRGVQLFNRRRQRVNEFTLESHGQRGQKPSQESLRVLPSSLPGHAPGLSLSSTSLPEPGPPRHPSPQSPDRGVPGHSMEGYSEEASLLRHLEKVASEEEEVPLVVYLKENAALLTANGLHLSQNREAQQSSPAPPPAEVHSPAADVNQNLASPSATLTTPTSNSSHNPPATDVNQNPPATVVPQSLPLSSIQQNSSEAQLPSNGTGPASKPSTLCADGQPQAPAEEVRCSTLLIDKVSTPATTTSTFSREATLIPSSRPPASDFMSSSLLIDIQPNTLVVSADQEMSGRAAATTPTKVYSEVHFTLAKPPSVVNRTARPFGIQAPGGTSQMERSPMLERRHFGEKAPAPQPPSLPDRSPRPQRHIMSRSPMVERRMMGQRSPASERRPLGNFTAPPTYTETLSTAPLASWVRSPPSYSVLYPSSDPKSSHLKGQAVPASKTGILEESMARRGSRKSMFTFVEKPKVTPNPDLLDLVQTADEKRRQRDQGEVGVEEEPFALGAEASNFQQEPAPRDRASPAAAEEVVPEWASCLKSPRIQAKPKPKPNQNLSEASGKGAELYARRQSRMEKYVIESSSHTPELARCPSPTMSLPSSWKYPTNAPGAFRVASRSPARTPPASLYHGYLPENGVLRPEPTKQPPYQLRPSLFVLSPIKEPAKVSPRAASPAKPSSLDLVPNLPKGALPPSPALPRPSRSSPGLYTSPGQDSLQPTAVSPPYGGDISPVSPSRAWSPRAKQAPRPSFSTRNAGIEAQVWKPSFCFK [SYNPO]”, the “solubility in G1/S (log2)” value in the series with HeLa Kyoto [1] is -1.65. Also, the melting temperature in the series on HeLa Kyoto [2] (cell cycle stage: mitosis) was found to be 52.8 °C. For the same substance, the “solubility change mitosis (log2)” value in the series on HeLa Kyoto [3] is 1.62. Also, the thermal stability score in the series on HeLa Kyoto [4] (setting [5]) is -0.595; in the series on HeLa Kyoto [4] (cell cycle stage: mitosis) it was -3.

Regarding MCM3AP, the “solubility in G1/S (log2)” value with HeLa Kyoto [1] is -0.867. In addition, the melting temperature with HeLa Kyoto [2] (cell cycle stage: G1/S) turned out to be 48.7 °C; with HeLa Kyoto [2] (cell cycle stage: mitosis), 49.5 °C. For the same substance, in the series with HeLa Kyoto [3], the “solubility change mitosis (log2)” value was 0.655. Further, the thermal stability score in the series with HeLa Kyoto [4] (setting [5]) is -0.00305; in the series on HeLa Kyoto [4] (cell cycle stage: mitosis), -0.291.

In the case of “MDKNELVQKAKLAEQAERYDDMAACMKSVTEQGAELSNEERNLLSVAYKNVVGARRSSWRVVSSIEQKTEGAEKKQQMAREYREKIETELRDICNDVLSLLEKFLIPNASQAESKVFYLKMKGDYYRYLAEVAAGDDKKGIVDQSQQAYQEAFEISKKEMQPTHPIRLGLALNFSVFYYEILNSPEKACSLAKTAFDEAIAELDTLSEESYKDSTLIMQLLRDNLTLWTSDTQGDEAEAGEGGEN [YWHAZ]”, the “solubility in G1/S (log2)” value in the series on HeLa Kyoto [1] was determined as 0.359. Moreover, the melting temperature in the series with HeLa Kyoto [2] (cell cycle stage: G1/S) was 54.9 °C; with HeLa Kyoto [2] (cell cycle stage: mitosis) it was 54.8 °C. For the same substance, the “solubility change mitosis (log2)” value in the series on HeLa Kyoto [3] was found to be 0.346. For the same substance, the results for the thermal stability score with HeLa Kyoto [4] (setting [5]) and with HeLa Kyoto [4] (cell cycle stage: mitosis) were -3.76 and -3.47, respectively.
